The target in experiment [1] is T1, recombinant human IL-6 (human, UniProt P05231). Put plainly: ELISA, told in the description of the chimeric antibody. Here is the method: (§1) An ELISA plate for antigen-binding assay was prepared as follows. A 96-well plate was coated with mouse monoclonal antibody MH166 recognizing a different epitope of human IL-6 from that recognized by SK2 (Matsuda, T. et al., Eur. J. Immunol. 18, 951–956, 1988), and after blocking, recombinant human IL-6 was added thereto. A sample of the chimeric SK2 antibody was sequentially diluted, added to each well, and then an alkaline phosphatase-conjugated goat anti-human IgG antibody (Sigma) was added thereto. After incubation and washing, substrate was added, and absorbance at 405 nm was measured.
Background: In an ELISA, binding on a coated surface is turned into a signal by an enzyme label.

Experiment [2] has as its target T2, biotinylated IL-6 (human, UniProt P05231, biotinylated (site not stated)). Put plainly: binding-inhibition ELISA, IL-6 to IL-6R (FIG. 10), reference. Here is the method:
(§2) For binding-inhibition assay, an ELISA plate was prepared as follows. A 96-well plate was coated with mouse monoclonal antibody, MT-18 (Hirata, Y. et al., J. Immunol., 143, 2900–2907, 1989), specific to human IL-6 receptor (IL-6R), and, after blocking, soluble recombinant human IL-6R (SR344) (Yasukawa, K. et al., J. Biochem. 108, 673–676, 1990) was added thereto. A sample of this chimeric SK2 antibody was sequentially diluted, and added with biotinylated IL-6 to each well, and after adding an alkaline phosphatase-conjugated streptavidin thereto, absorbance at 405 nm was measured.

Experiment [3] deals with T1, recombinant human IL-6. Put plainly: antigen-binding ELISA (FIG. 8). Here is the method: as §1
Experiment [4] concerns the target T1, recombinant human IL-6. Put plainly: antigen-binding ELISA (FIG. 9). The procedure: as §1
For experiment [5], the target named is T2, biotinylated IL-6. The experiment in a line: binding-inhibition ELISA, IL-6 to IL-6R (FIG. 10). Here is the method:
as §2

B1: chimeric SK2 antibody (antibody, V domains shown)
VH: QVTLKESGPGILQPSQTLSLTCSFSGFSLNTSGMTVGWIRQPSGKGLEWLAHIWWNDDKYYNPALKGRLTISKDTSNNQVFLKIASVVTADTATYYCARMEDYDEAMDYWGQGTSVTVSS
VL: DIQMTQSPASLSVSVGETVTITCRASENIYSNLAWYQQKQGKSPQLLVYAATYLADGVPSRFSGSGSGTQYSLKINSLQSEDFGSYYCQHFWGTPPFGSGTKLEIK
With B1, the binding result with recombinant human IL-6 [1] and in the experiment with biotinylated IL-6 [2] was “binds” each time.

B2: antibody comprising reshaped L chain version "a" and chimeric H chain (antibody, V domains shown)
VH: QVTLKESGPGILQPSQTLSLTCSFSGFSLNTSGMTVGWIRQPSGKGLEWLAHIWWNDDKYYNPALKGRLTISKDTSNNQVFLKIASVVTADTATYYCARMEDYDEAMDYWGQGTSVTVSS
VL: DIQMTQSPSSLSASVGDRVTITCRASENIYSNLAWYQQKPGKAPKLLIYAATYLADGVPSRFSGSGSGTDFTFTISSLQPEDIATYYCQHFWGTPPFGQGTKVEIK
With B2, the binding result in the experiment with recombinant human IL-6 [3] is “binds”.

B3: antibody comprising reshaped L chain version "b" and chimeric H chain (antibody, V domains shown)
VH: QVTLKESGPGILQPSQTLSLTCSFSGFSLNTSGMTVGWIRQPSGKGLEWLAHIWWNDDKYYNPALKGRLTISKDTSNNQVFLKIASVVTADTATYYCARMEDYDEAMDYWGQGTSVTVSS
VL: DIQMTQSPSSLSASVGDRVTITCRASENIYSNLAWYQQKPGKAPKLLIYAATYLADGVPSRFSGSGSGTDYTFTISSLQPEDIATYYCQHFWGTPPFGQGTKVEIK
With B3, the binding result in the experiment with recombinant human IL-6 [3] is “binds”.

B4: reshaped human SK2 antibody, L chain version "a" and H chain version "a" (antibody, V domains shown)
VH: QVTLRESGPALVRPTQTLTLTCTFSGFSLSTSGMTVGWIRQPPGEALEWLAHIWWNDDKYYNPALKGRLAVSKDTSKNQVVLSMNTVGPGDTATYYCARMEDYDEAMDYWGQGILVTVSS
VL: DIQMTQSPSSLSASVGDRVTITCRASENIYSNLAWYQQKPGKAPKLLIYAATYLADGVPSRFSGSGSGTDFTFTISSLQPEDIATYYCQHFWGTPPFGQGTKVEIK
With B4, the binding result with recombinant human IL-6 [4] and with biotinylated IL-6 [5] was “binds” in each case.

B5: reshaped human SK2 antibody, L chain version "b" and H chain version "b" (antibody, V domains shown)
VH: QVTLRESGPALVRPTQTLTLTCTFSGFSLNTSGMTVGWIRQPPGEALEWLAHIWWNDDKYYNPALKGRLAVSKDTSKNQVVLSMNTVGPGDTATYYCARMEDYDEAMDYWGQGILVTVSS
VL: DIQMTQSPSSLSASVGDRVTITCRASENIYSNLAWYQQKPGKAPKLLIYAATYLADGVPSRFSGSGSGTDYTFTISSLQPEDIATYYCQHFWGTPPFGQGTKVEIK
With B5, the binding result with recombinant human IL-6 [4] is recorded as “binds”.

B6: reshaped human SK2 antibody, L chain version "a" and H chain version "b" (antibody, V domains shown)
VH: QVTLRESGPALVRPTQTLTLTCTFSGFSLNTSGMTVGWIRQPPGEALEWLAHIWWNDDKYYNPALKGRLAVSKDTSKNQVVLSMNTVGPGDTATYYCARMEDYDEAMDYWGQGILVTVSS
VL: DIQMTQSPSSLSASVGDRVTITCRASENIYSNLAWYQQKPGKAPKLLIYAATYLADGVPSRFSGSGSGTDFTFTISSLQPEDIATYYCQHFWGTPPFGQGTKVEIK
On to B6, for which the binding result with recombinant human IL-6 [4] and with biotinylated IL-6 [5] was “binds” throughout.

B7: reshaped human SK2 antibody, L chain version "b" and H chain version "a" (antibody, V domains shown)
VH: QVTLRESGPALVRPTQTLTLTCTFSGFSLSTSGMTVGWIRQPPGEALEWLAHIWWNDDKYYNPALKGRLAVSKDTSKNQVVLSMNTVGPGDTATYYCARMEDYDEAMDYWGQGILVTVSS
VL: DIQMTQSPSSLSASVGDRVTITCRASENIYSNLAWYQQKPGKAPKLLIYAATYLADGVPSRFSGSGSGTDYTFTISSLQPEDIATYYCQHFWGTPPFGQGTKVEIK
As to B7, the binding result with recombinant human IL-6 [4] and in the experiment with biotinylated IL-6 [5] was “binds” each time.

The values above are taken from US5856135, “Reshaped human antibody to human interleukin-6” (Chugai Seiyaku Kabushiki Kaisha, dated 1999).
